Reference: publication PMC5796856 (Molecular microbiology, 2018)
Values belong to the molecule of their own block, whether it stands above or below them.

Columns and labels:
FtsA [1] = molecular target: FtsA (Escherichia coli, UniProt P0ABH0, K86A); experiment: mant fluorescence titration; type: binding
FtsA [2] = molecular target: T1, FtsA (Escherichia coli, UniProt P0ABH0); experiment: mant fluorescence titration; type: binding
T1 sequence (P0ABH0 1-420): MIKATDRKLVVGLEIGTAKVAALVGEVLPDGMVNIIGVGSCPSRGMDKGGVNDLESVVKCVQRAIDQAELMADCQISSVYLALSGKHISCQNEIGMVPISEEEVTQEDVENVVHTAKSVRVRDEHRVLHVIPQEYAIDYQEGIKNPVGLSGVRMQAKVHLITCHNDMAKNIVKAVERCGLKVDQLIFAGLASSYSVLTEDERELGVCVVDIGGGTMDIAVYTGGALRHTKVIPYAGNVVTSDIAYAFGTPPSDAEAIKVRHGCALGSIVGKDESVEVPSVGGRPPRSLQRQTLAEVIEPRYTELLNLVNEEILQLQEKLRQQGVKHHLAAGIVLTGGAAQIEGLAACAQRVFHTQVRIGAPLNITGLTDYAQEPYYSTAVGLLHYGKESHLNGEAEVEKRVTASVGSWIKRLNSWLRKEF

FtsA (E. coli) = FtsA (E. coli) (UniProt P0ABH0); experiment: co-sedimentation
SEC = molecular target: the molecule itself; experiment: SEC
FtsA [3] = molecular target: T2, FtsA (E. coli, UniProt P0ABH0 1-420); experiment: confocal fluorescence microscopy of recruitment to vesicles in vitro
T2 sequence (looked up): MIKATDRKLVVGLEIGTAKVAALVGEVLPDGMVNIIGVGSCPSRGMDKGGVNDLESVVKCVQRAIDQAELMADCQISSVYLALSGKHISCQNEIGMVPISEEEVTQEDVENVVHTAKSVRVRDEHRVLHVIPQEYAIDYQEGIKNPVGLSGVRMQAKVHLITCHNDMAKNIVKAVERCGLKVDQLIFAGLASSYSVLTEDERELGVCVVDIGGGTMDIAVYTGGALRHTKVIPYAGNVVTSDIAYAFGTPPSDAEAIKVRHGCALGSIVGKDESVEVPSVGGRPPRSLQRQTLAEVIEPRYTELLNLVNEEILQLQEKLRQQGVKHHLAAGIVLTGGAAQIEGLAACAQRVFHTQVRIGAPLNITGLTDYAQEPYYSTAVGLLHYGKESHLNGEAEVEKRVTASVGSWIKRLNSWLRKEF

[4] = molecular target: the molecule itself; experiment: sedimentation of polymers by ultracentrifugation

Chain of FtsA (Escherichia coli, UniProt P0ABH0, K86A) (P0ABH0 whole entry K86A): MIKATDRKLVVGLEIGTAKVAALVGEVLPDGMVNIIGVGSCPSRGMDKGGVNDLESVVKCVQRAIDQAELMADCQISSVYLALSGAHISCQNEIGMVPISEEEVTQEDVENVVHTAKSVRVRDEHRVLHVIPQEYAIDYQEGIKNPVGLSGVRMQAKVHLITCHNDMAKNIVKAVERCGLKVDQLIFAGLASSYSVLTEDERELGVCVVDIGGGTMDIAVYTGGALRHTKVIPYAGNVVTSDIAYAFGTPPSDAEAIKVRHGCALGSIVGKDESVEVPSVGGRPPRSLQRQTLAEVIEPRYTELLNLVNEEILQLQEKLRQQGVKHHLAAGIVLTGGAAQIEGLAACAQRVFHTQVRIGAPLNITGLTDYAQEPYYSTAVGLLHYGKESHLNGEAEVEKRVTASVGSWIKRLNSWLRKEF

Kd (FtsA [1]): 27.9 ± 0.5 µM
Kd (FtsA [2]): 26.2 ± 3 µM
Molecule: CNc1ccccc1C(=O)O[C@H]1[C@@H](O)[C@H](n2cnc3c(N)ncnc32)O[C@@H]1CO[P@@](=O)(O)O[P@](=O)(O)OP(=O)(O)O [mant-ATP]

percent of FtsZ in the pellet (FtsA (E. coli)): 35.6%
Molecule: FtsZ(R379E) (from UniProt P0A9A6 1-383) (natural protein)

binding result (FtsA [3]): binds
B2: FL-FtsZ (natural protein, E. coli, UniProt P0A9A6 1-383, looked up)
chain: MFEPMELTNDAVIKVIGVGGGGGNAVEHMVRERIEGVEFFAVNTDAQALRKTAVGQTIQIGSGITKGLGAGANPEVGRNAADEDRDALRAALEGADMVFIAAGMGGGTGTGAAPVVAEVAKDLGILTVAVVTKPFNFEGKKRMAFAEQGITELSKHVDSLITIPNDKLLKVLGRGISLLDAFGAANDVLKGAVQGIAELITRPGLMNVDFADVRTVMSEMGYAMMGSGVASGEDRAEEAAEMAISSPLLEDIDLSGARGVLVNITAGFDLRLDEFETVGNTIRAFASDNATVVIGTSLDPDMNDELRVTVVATGIGMDKRPEITLVTNKQVQQPVMDRYQQHGMAPLTQEQKPVAKVVNDNAPQTAKEPDYLDIPAFLRKQAD
modifications: Alexa Fluor 488 label

Further lines, the molecule ahead of its results:

B1: FtsA(ΔMTS) (domain or fragment, E. coli, UniProt P0ABH0 1-404, looked up)
chain: MIKATDRKLVVGLEIGTAKVAALVGEVLPDGMVNIIGVGSCPSRGMDKGGVNDLESVVKCVQRAIDQAELMADCQISSVYLALSGKHISCQNEIGMVPISEEEVTQEDVENVVHTAKSVRVRDEHRVLHVIPQEYAIDYQEGIKNPVGLSGVRMQAKVHLITCHNDMAKNIVKAVERCGLKVDQLIFAGLASSYSVLTEDERELGVCVVDIGGGTMDIAVYTGGALRHTKVIPYAGNVVTSDIAYAFGTPPSDAEAIKVRHGCALGSIVGKDESVEVPSVGGRPPRSLQRQTLAEVIEPRYTELLNLVNEEILQLQEKLRQQGVKHHLAAGIVLTGGAAQIEGLAACAQRVFHTQVRIGAPLNITGLTDYAQEPYYSTAVGLLHYGKESHLNGEAEVEKRVTAS
stoichiometry N (SEC): 2

B3: FtsZ(R379E) (natural protein, E. coli, UniProt P0A9A6 1-383, looked up)
chain: MFEPMELTNDAVIKVIGVGGGGGNAVEHMVRERIEGVEFFAVNTDAQALRKTAVGQTIQIGSGITKGLGAGANPEVGRNAADEDRDALRAALEGADMVFIAAGMGGGTGTGAAPVVAEVAKDLGILTVAVVTKPFNFEGKKRMAFAEQGITELSKHVDSLITIPNDKLLKVLGRGISLLDAFGAANDVLKGAVQGIAELITRPGLMNVDFADVRTVMSEMGYAMMGSGVASGEDRAEEAAEMAISSPLLEDIDLSGARGVLVNITAGFDLRLDEFETVGNTIRAFASDNATVVIGTSLDPDMNDELRVTVVATGIGMDKRPEITLVTNKQVQQPVMDRYQQHGMAPLTQEQKPVAKVVNDNAPQTAKEPDYLDIPAFLEKQAD
binding result [4]: binds

B4: FtsZ (natural protein, E. coli, UniProt P0A9A6 1-383, looked up)
chain: MFEPMELTNDAVIKVIGVGGGGGNAVEHMVRERIEGVEFFAVNTDAQALRKTAVGQTIQIGSGITKGLGAGANPEVGRNAADEDRDALRAALEGADMVFIAAGMGGGTGTGAAPVVAEVAKDLGILTVAVVTKPFNFEGKKRMAFAEQGITELSKHVDSLITIPNDKLLKVLGRGISLLDAFGAANDVLKGAVQGIAELITRPGLMNVDFADVRTVMSEMGYAMMGSGVASGEDRAEEAAEMAISSPLLEDIDLSGARGVLVNITAGFDLRLDEFETVGNTIRAFASDNATVVIGTSLDPDMNDELRVTVVATGIGMDKRPEITLVTNKQVQQPVMDRYQQHGMAPLTQEQKPVAKVVNDNAPQTAKEPDYLDIPAFLRKQAD
binding result [4]: binds
